From article doi:10.1101/2022.10.04.510822 (bioRxiv, 2022)

Target: GST-GABARAP (human, UniProt O95166 1-117)
Test: pull-down

Chain of GST-GABARAP (O95166 whole entry): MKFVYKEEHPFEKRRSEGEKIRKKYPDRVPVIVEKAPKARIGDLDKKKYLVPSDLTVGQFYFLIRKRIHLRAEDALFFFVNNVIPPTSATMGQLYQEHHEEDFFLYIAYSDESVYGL

KPHKHLPPAALHLIAYYKENKDREDKR [WSTF peptide PP4 (residues 466-492)]: binds.
